Test results taken from patent US20160153020A1 (GLYCOTREK, published 2016).

Biological target: T1, DC-SIGN (human lectin receptor) expressed on a recombinant HEK cell line (human, UniProt Q9NNX6 1-404)
T1 construct: whole, on cells; The construct in the HEK cell line is not described
T1 sequence (looked up): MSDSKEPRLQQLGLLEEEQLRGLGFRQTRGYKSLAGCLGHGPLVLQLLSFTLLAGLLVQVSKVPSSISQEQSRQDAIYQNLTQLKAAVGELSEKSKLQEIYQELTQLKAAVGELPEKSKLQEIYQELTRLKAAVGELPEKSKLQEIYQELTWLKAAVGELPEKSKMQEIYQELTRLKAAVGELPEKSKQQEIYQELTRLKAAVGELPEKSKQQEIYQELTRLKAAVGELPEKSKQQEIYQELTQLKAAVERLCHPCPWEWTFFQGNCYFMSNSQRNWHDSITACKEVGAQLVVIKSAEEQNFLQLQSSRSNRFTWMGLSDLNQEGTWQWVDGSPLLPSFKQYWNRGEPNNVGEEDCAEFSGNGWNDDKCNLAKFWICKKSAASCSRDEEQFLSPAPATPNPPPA
Assay: binding to recombinant HEK cells expressing DC-SIGN (method not described)

binding result: no binding
B1: infliximab produced in CHO cell lines (antibody, V domains shown)
VH: EVKLEESGGGLVQPGGSMKLSCVASGFIFSNHWMNWVRQSPEKGLEWVAEIRSKSINSATHYAESVKGRFTISRDDSKSAVYLQMTDLRTEDTGVYYCSRNYYGSTYDYWGQGTTLTVSA
VL: DILLTQSPAILSVSPGERVSFSCRASQFVGSSIHWYQQRTNGSPRLLIKYASESMSGIPSRFSGSGSGTDFTLSINTVESEDIADYYCQQSHSWPFTFGSGTNLEVKR
modifications: single N-glycosylation site at position Asn297 ; chain 1 pos 300: Asn297 (EU) carries the single N-glycan; the glycoform depends on the CHO line (Inf or Inf-Sial)
